In US20230265187A1 (published 2023):
Changes are numbered by the printed parent chain.

T1: human TIGIT on Jurkat cells (TIGIT/NFAT reporter Jurkat cells, BPS Bioscience #60538); Promega TIGIT Effector … (human, UniProt Q495A1 22-244)
T1 sequence (looked up): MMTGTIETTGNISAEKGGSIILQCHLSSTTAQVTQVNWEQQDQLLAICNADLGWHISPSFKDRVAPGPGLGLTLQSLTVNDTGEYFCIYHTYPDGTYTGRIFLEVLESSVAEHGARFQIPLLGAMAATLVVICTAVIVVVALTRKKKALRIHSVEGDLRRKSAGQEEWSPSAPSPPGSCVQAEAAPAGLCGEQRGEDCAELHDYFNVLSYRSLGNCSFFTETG

T2: his-tagged human TIGIT (Acro Biosystems #TIT-H52H3) (human, UniProt Q495A1 22-141)
T2 construct: Bought protein; also called His-tagged-TIGIT (human); not shown: his tag
T2 sequence (looked up): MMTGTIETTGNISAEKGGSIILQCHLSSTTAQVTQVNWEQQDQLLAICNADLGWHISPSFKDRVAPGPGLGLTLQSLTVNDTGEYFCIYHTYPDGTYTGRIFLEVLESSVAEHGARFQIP

T3: his-tagged murine TIGIT (Acro Biosystems #TIT-M52E6) (murine, UniProt P86176 29-148, limits assumed)
T3 construct: Bought protein; also called mouse his-tagged TIGIT; not shown: his tag
T3 sequence (looked up): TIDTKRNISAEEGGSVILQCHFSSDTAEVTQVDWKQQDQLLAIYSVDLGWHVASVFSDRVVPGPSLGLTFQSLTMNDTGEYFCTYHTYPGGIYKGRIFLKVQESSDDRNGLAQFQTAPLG

B1: 43586p1.2.C5 (scFv, V domains shown)
VH: EVQLLESGGGLVQPGGSLRLSCAASGFTVSDHYMSWVRQAPGKGLEWVSTTSSTSWKNYTYYADSVKGRFSISRDNSENTLYLQMNGLRAEDTAVYYCAKGSYGMDVWGQGTTVTVSS
VL: QSVLTQPPSASGTPGQRVTISCSGSNFNIGTKYLYWYQQLPGTAPKLLIYLDSQRPSGVPDRFSTSKPGTSASLAISGLQSEDEADYYCALWDDHLHGWVFGGGTKLTVL
B2: 43586p2.D01 (scFv, V domains shown)
VH: B1 VH with D31S, H32N, Y33W, T54S, K57N, S71T, E78K, G87S
VL: B1 VL with F27S, T31A, D52N, S53D, T65G, P68S, L91F, H97K
B3: 43586p1.2.E6 (scFv, V domains shown)
VH: B1 VH
VL: B1 VL with P68S
B4: 43586p1.2.C9 (scFv, V domains shown)
VH: EVQLLESGGGLVQPGGSLRLSCAASGFTFDDYVMSWVRQAPGKGLEWVSLINWNGDKTYYADSVKGRFTISRDNSKNTLYLQMNSLRAEDTAIYYCAKHWIVFQYGMDVWGQGTTVTVSS
VL: QSVLTQPPSASGTPGQRVTISCSGSISNIETKYVSWYQQLPGTAPKLLIYNSDQRPSGVPDRFSGSKSGTSASLAISGLQSEDEADYYCVSWDASLKSWVFGGGTKLTVL
B5: 43586p2.E08 (scFv, V domains shown)
VH: B4 VH with G10D, G66D, I93V, K98R, M107L
VL: B4 VL with P8L, S25V, I26S, T31I, D53H, V90T, A94D, S95R
B6: 43586p2.D05 (scFv, V domains shown)
VH: B4 VH with I93V, K98R, M107L, V109I
VL: B4 VL with P8L, S25V, I26S, T31I, D53H, V90T, A94D, S95R
B7: 43586p1.2.C12 (scFv, V domains shown)
VH: ESGGGLVQPGGSLRLSCAASGFTFSDYLMTWVRQAPGKGLEWVSTITWDGDRTYYADSVKGRFTISRDNSKNTLYLQMNSLRAEDTAVYYCAKHWTVFQYGMDVWGQGTTVTVSS
VL: B4 VL with S25T, T31I, N51G, S52N, D53H, V90S, D93E, A94N, S95D

Molecular target: T1, human TIGIT on Jurkat cells (TIGIT/NFAT …)
Assay: cell-based or functional assay

max. signal (% of 22G2)	Binder
91 % of 22G2	B1
103 % of 22G2	B2
97 % of 22G2	B3
126 % of 22G2	B4
117 % of 22G2	B5
118 % of 22G2	B6
118 % of 22G2	B7

Molecular target: T2, his-tagged human TIGIT (Acro Biosystems …)
Assay: ELISA, coated His-TIGIT, 1 ug/ml

Elisa OD450 [OD450]	Binder
2.03	B1
1.95	B2
1.82	B3
2.17	B4
1.46	B5
1.92	B6
2.21	B7

Molecular target: T3, his-tagged murine TIGIT (Acro …)
Assay: ELISA, coated His-TIGIT, 1 ug/ml

Elisa OD450 [OD450]	Binder
2.03	B1
1.66	B2
2.01	B3
0.046	B4
2.03	B5
1.67	B6
2.03	B7

Molecular target: T4, His-tagged cynomolgus monkey TIGIT (Acro Biosystems #TIT-05223) (cynomolgus monkey, UniProt A0A7N9I9V4 89-209)
T4 construct: Bought protein; also called cyno TIGIT; cynomolgus TIGIT; not shown: His tag
T4 sequence (A0A7N9I9V4 entry or part of it): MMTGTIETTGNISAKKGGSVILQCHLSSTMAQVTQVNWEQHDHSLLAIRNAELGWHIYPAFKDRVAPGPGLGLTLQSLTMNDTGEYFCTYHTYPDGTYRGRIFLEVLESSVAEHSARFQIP
Assay: ELISA, coated His-TIGIT, 1 ug/ml

Elisa OD450 [OD450]	Binder
0.685	B1
1.61	B2
0.776	B3
1.61	B4
1.87	B5
1.73	B6
1.68	B7

Molecular target: T1, human TIGIT on Jurkat cells (TIGIT/NFAT …)
Assay: flow cytometry, TIGIT/NFAT Jurkat cells, 10 ug/ml

MFI [MFI]	Binder
10700	B1
9990	B2
10500	B3
8330	B4
11300	B5
9960	B6
11900	B7

Molecular target: T2, his-tagged human TIGIT (Acro Biosystems …)
Assay: SPR (Carterra LSA), scFv-Fc captured, His-TIGIT analyte
Protocol: (§1) Binding affinities of anti-TIGIT antibodies to human, cyno, and murine TIGIT were measured by Surface Plasmon Resonance (SPR) on a Carterra LSA instrument. Goat anti-human Fc antibody was amine coupled to a HC30M chip. ScFv-Fc supernatants were diluted 30-fold with HBSTE and were captured by the anti-human Fc coupled HC30M chip. A 1:2 dilution series of his-tagged human TIGIT, starting at 400 nM, was injected onto the chip for binding. A dilution series was also carried out for cyno TIGIT and murine TIGIT. Data were analyzed using the Carterra™ Kinetics software.

Kd [nM]	Binder
1.04	B1
1.04	B2
1.56	B3
0.202	B4
0.252	B5
0.214	B6
0.192	B7

Molecular target: T3, his-tagged murine TIGIT (Acro …)
Assay: as above
Protocol: as §1

Kd [nM]	Binder
3.2	B1
0.496	B2
3.07	B3
3.66	B4
5.79	B5
5.46	B6
68.2	B7

Molecular target: T4, His-tagged cynomolgus monkey TIGIT …
Assay: as above
Protocol: as §1

Kd [nM]	Binder
411	B1
29.1	B2
564	B3
8.69	B4
1.83	B5
1.55	B6
9.18	B7
